# Measurements from publication doi:10.1101/2020.12.24.423824 (bioRxiv, 2020).
# Target: RlucII-Rab7A (UniProt P51149 1-207)
# Experiment: FRET or BRET
# RlucII-Rab7A, sequence (P51149 whole entry): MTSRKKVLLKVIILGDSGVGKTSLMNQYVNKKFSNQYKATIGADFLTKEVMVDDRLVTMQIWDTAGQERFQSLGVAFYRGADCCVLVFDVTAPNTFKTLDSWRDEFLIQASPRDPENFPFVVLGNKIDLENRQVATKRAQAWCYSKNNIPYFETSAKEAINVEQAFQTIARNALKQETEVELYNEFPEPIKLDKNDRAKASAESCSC
row,fold increase of BRET50 in CLN5KO cells against wild-type HeLa cells [fold],Binder
1,3,"RILP-GFP10 (natural protein, UniProt Q96NA2 1-401, looked up) MEPRRAAPGVPGWGSREAAGSASAAELVYHLAGALGTELQDLARRFGPEAAAGLVPLVVRALELLEQAAVGPAPDSLQVSAQPAEQELRRLREENERLRRELRAGPQEERALLRQLKEVTDRQRDELRAHNRDLRQRGQETEALQEQLQRLLLVNAELRHKLAAMQTQLRAAQDRERERQQPGEAATPQAKERARGQAGRPGHQHGQEPEWATAGAGAPGNPEDPAEAAQQLGRPSEAGQCRFSREEFEQILQERNELKAKVFLLKEELAYFQRELLTDHRVPGLLLEAMKVAVRKQRKKIKAKMLGTPEEAESSEDEAGPWILLSDDKGDHPPPPESKIQSFFGLWYRGKAESSEDETSSPAPSKLGGEEEAQPQSPAPDPPCSALHEHLCLGASAAPEA"
2,2.85,"GFP10-CLN3 (natural protein, UniProt Q13286 1-438, looked up) MGGCAGSRRRFSDSEGEETVPEPRLPLLDHQGAHWKNAVGFWLLGLCNNFSYVVMLSAAHDILSHKRTSGNQSHVDPGPTPIPHNSSSRFDCNSVSTAAVLLADILPTLVIKLLAPLGLHLLPYSPRVLVSGICAAGSFVLVAFSHSVGTSLCGVVFASISSGLGEVTFLSLTAFYPRAVISWWSSGTGGAGLLGALSYLGLTQAGLSPQQTLLSMLGIPALLLASYFLLLTSPEAQDPGGEEEAESAARQPLIRTEAPESKPGSSSSLSLRERWTVFKGLLWYIVPLVVVYFAEYFINQGLFELLFFWNTSLSHAQQYRWYQMLYQAGVFASRSSLRCCRIRFTWALALLQCLNLVFLLADVWFGFLPSIYLVFLIILYEGLLGGAAYVNTFHNIALETSDEHREFAMAATCISDTLGISLSGLLALPLHDFLCQLS"
